Biological target: soluble H-2K^b (K^bsol), heterodimer of truncated K^b heavy chain and murine β-2 microglobulin, purified empty from Drosophila cells (murine) (UniProt P01901)
Test: competitive RIA against [^125I]VSV-8 on K^bsol, P30 gel filtration, 23° C.

Compared with OVA-8 (peptide), OVA-9C (peptide) is 2.7-fold higher in Kd: 4.1 nM for the first, 11 nM for the second.

Going from OVA-10C (peptide) to OVA-10N (peptide), the Kd rises from 14 nM to 280 nM (20-fold).
